Experimental findings from US20150361450, “VECTOR FOR THERAPY OF MITOCHONDRIAL DISEASE” (UNIVERSITE DE STRASBOURG, published 2015) are described below.

This data set deals with preKARS2 (precursor of human mitochondrial lysyl-tRNA synthetase) (Homo sapiens, UniProt Q15046-2 Q15046-2:1-625). Nature of the data set: EMSA; 10 mM MgCl2, 30 C. Particulars: tags: C-terminal 6xHis, thrombin site and N-terminal 6xHis deleted, label: 5'-32P. On the procedure: Purified RNA was dephosphorylated with alkaline phosphatase (Boehringer Mannheim) and labeled at the 59-end with c-32P-ATP using T4 polynucleotide kinase (Promega). The labeled RNA was denatured at 100° C. and then slowly cooled down to the room temperature. For RNA binding assays, the appropriate amount of protein and labeled RNA were mixed in […] of the buffer containing 20 mM Tris-HCl pH 7.5, 150 mM NaCl, 10 mM MgCl2, 5 mM DTT, 10% glycerol, 0.1 mg/ml BSA and incubated at 30° C. for 15 min. The mixture was separated by native 8% PAGE in […] buffer (pH 8.3) and 5% glycerol, followed by Typhoon-Trio (GE Healthcare) scanning and quantification as described in.
Chain of preKARS2 (precursor of human mitochondrial lysyl-tRNA synthetase) (Q15046 other isoform, or with tags, fused parts or gaps): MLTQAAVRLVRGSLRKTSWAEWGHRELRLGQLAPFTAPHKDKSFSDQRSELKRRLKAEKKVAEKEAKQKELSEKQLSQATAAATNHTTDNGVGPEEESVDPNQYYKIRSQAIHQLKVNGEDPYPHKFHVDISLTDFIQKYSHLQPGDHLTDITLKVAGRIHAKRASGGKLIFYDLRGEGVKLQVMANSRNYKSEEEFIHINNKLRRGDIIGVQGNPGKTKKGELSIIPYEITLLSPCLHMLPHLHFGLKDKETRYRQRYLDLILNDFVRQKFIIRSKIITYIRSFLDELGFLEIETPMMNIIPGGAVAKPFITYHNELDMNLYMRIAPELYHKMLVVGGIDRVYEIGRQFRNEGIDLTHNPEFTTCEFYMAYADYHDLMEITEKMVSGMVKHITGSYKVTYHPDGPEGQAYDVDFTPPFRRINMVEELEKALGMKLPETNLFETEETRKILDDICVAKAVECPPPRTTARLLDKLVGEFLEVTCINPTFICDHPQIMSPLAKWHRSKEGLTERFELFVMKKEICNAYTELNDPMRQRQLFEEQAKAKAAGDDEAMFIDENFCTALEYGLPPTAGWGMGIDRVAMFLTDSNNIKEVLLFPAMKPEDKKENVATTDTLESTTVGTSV

GGUCUUUACAGUGCUUACUUCUCGAGCCCCCUACAGGGCUCCA (ssRNA) [HF RNA]: the binding result (F-hairpin only, D-arm deleted) was “no binding”.
For GCGCAAUCGGUAGCGCCUCUUUACAGUGCUUAGUUCUC (ssRNA) [HD RNA], where the note is “D-arm only, F-hairpin deleted”, the binding result is listed as “no binding”.
